Test results: patent publication US20220010003A1 (Boehringer Ingelheim, published 2022)
Where a chain is given by its changes, count along the chain named. Names may count otherwise.

B1: NB0627 (antibody, human IgG1, V domains shown)
VH: QVQLVQSGAEVKKPGASVKVSCKASGYTFTSYGISWVRQAPGQGLEWMGWISAYNGNTNYAQKLQGRVTMTTDTSTSTAYMELRSLRSDDTAVYYCARDMLVVPFDYWGQGTLVTVSS
VL: QSVLTQSSSASGTPGQTVTVSCSGSSSDIGSNRVNWYQQLPGTAPKLLIYSNDQRPSGVPDRFSGSKSGTSASLAISGLQSADEADYYCAAWDDSLSTYVFGSGTKVTVL
B2: NB1012 (N55S_M100I) (antibody, V domains shown)
VH: B1 VH with N55S, M100I
VL: B1 VL
notes: Double mutant of NB0828 (IgG4PAA parent); the isotype of the variant is not restated
B3: NB1011 (N55T) (antibody, V domains shown)
VH: B1 VH with N55T
VL: B1 VL
notes: Variant of NB0828 (IgG4PAA parent); the isotype of the variant is not restated
B4: NB1010 (N55Q) (antibody, V domains shown)
VH: B1 VH with N55Q
VL: B1 VL
notes: as for B3
B5: NB1014 (N55T_M100V) (antibody, V domains shown)
VH: B1 VH with N55T, M100V
VL: B1 VL
notes: as for B2
B6: NB1015 (N55D) (antibody, V domains shown)
VH: B1 VH with N55D
VL: B1 VL
notes: as for B3
B7: NB1003 (N55S) (antibody, V domains shown)
VH: B1 VH with N55S
VL: B1 VL
notes: as for B3

What follows are binders tested against T1, recombinant human periostin (human, UniProt Q15063 22-836) (assay: cell-based or functional assay).
T1 sequence: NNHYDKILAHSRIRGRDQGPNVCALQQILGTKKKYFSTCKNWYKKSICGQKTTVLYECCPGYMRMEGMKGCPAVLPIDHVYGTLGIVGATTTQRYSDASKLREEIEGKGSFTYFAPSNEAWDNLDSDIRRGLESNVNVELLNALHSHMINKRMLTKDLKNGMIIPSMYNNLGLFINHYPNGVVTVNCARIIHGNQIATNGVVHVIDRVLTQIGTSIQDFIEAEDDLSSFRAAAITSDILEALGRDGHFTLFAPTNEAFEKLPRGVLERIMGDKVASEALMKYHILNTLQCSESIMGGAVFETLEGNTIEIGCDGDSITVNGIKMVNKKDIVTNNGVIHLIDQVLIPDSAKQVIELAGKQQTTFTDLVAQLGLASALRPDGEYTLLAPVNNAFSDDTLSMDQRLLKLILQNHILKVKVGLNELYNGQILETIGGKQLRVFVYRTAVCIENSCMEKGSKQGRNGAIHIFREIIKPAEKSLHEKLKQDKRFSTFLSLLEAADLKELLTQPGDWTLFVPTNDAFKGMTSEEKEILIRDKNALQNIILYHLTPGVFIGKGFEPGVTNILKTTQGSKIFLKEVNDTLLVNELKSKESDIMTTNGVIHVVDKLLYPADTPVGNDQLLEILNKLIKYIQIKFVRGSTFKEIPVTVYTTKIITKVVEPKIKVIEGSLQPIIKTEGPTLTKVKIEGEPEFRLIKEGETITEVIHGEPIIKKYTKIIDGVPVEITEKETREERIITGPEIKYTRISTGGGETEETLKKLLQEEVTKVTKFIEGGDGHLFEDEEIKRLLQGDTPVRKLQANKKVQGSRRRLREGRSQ

Q: Which “IC50 (nM), cell attachment assay” value does the source give for B1 here?
A: Its value is 22.4 nM.

These binders were tested against T2, recombinant mouse periostin (mouse, UniProt Q62009-2 24-811, limits assumed) (assay: cell-based or functional assay).
T2 sequence (looked up): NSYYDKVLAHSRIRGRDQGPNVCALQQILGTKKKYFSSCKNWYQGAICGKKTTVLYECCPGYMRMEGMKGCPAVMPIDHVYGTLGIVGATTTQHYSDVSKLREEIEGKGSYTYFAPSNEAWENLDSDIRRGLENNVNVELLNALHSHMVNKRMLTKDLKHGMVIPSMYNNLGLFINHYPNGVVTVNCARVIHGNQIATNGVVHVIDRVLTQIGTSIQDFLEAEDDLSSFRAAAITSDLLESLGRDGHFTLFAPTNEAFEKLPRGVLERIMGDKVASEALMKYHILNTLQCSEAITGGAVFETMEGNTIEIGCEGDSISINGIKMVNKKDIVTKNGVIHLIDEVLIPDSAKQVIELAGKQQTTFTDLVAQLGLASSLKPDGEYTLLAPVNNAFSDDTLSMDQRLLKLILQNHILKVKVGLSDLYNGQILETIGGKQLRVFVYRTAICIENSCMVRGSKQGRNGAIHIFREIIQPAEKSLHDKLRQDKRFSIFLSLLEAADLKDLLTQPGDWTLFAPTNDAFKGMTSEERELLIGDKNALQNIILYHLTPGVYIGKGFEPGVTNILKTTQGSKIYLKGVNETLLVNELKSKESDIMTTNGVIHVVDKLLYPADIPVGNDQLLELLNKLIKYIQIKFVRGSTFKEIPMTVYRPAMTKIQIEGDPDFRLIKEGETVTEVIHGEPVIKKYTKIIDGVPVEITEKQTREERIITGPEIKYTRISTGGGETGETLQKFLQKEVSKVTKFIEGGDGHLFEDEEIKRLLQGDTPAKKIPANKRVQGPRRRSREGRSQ

Q: With B2 as the binder, how does the “CAA IC50” value read?
A: Its value is 42.3 nM.

Q: With B3 as the binder, how does the “CAA IC50” value read?
A: Its value is 22.3 nM.

Q: For B4, which “CAA IC50” value is on record?
A: The value was 19.6 nM.

Q: B5 was tested. Which “CAA IC50” value did it give?
A: Its value is 65.1 nM.

Q: For B6, which “CAA IC50” value is on record?
A: The value was 20.9 nM.

Q: B7 was tested. Which “CAA IC50” value did it give?
A: The value was 14.9 nM.

Target: T1, recombinant human periostin
Experiment: cell-based or functional assay
Remark: another data set of the same source

Q: How did the “CAA IC50” value turn out when B3 was run?
A: Its value is 15 nM.

Q: Which “CAA IC50” value does the source give for B4 here?
A: The value was 7.97 nM.

Q: B6 was tested. Which “CAA IC50” value did it give?
A: Its value is 13.6 nM.

Q: B7 was tested. Which “CAA IC50” value did it give?
A: The value was 10.8 nM.

What follows are binders tested against T2, recombinant mouse periostin (assay: binding ELISA, periostin coated).

Q: For B2, which EC50 is on record?
A: The EC50 was 4.42 nM.

Q: How did the EC50 turn out when B3 was run?
A: Its EC50 is 0.07 nM.

Q: For B4, which EC50 is on record?
A: The EC50 was 0.1 nM.

Q: With B5 as the binder, how does the EC50 read?
A: Its EC50 is 19.3 nM.

Q: How did the EC50 turn out when B6 was run?
A: The EC50 was 0.18 nM.

Q: How did the EC50 turn out when B7 was run?
A: Its EC50 is 0.08 nM.

Each binder was assayed against T1, recombinant human periostin (assay: binding ELISA, periostin coated).

Q: Which EC50 does the source give for B2 here?
A: Its EC50 is 2.28 nM.

Q: B3 was tested. Which EC50 did it give?
A: The EC50 was 0.07 nM.

Q: For B4, which EC50 is on record?
A: Its EC50 is 0.08 nM.

Q: How did the EC50 turn out when B5 was run?
A: The EC50 was 9.47 nM.

Q: B6 was tested. Which EC50 did it give?
A: Its EC50 is 0.12 nM.

Q: For B7, which EC50 is on record?
A: Its EC50 is 0.08 nM.

What follows are binders tested against T2, recombinant mouse periostin (assay: ELISA, periostin coated, anti-human Fc-HRP; the clone is named in Table 2).

Q: With B1 as the binder, how does the EC50 read?
A: Its EC50 is less than 1 nM.

What follows are binders tested against T1, recombinant human periostin in the same assay as above.

Q: With B1 as the binder, how does the EC50 read?
A: Its EC50 is less than 1 nM.
